Source: US20100216191A1, “Method for Manufacturing a Modified Peptide” (PROCOMCURE BIOTECH GMBH, priority 2007, published 2010)

B1: FLNA: human protein interacting with FnbB, NCBI Protein GI 15779184 (protein)
chain: MPSGKVAQPTITDNKDGTVTVRYAPSEAGLHEMDIRYDNMHIPGSPLQFYVDYVNCGHVTAYGPGLTHGVVNKPATFTVNTKDAGEGGLSLAIEGPSKAEISCTDNQDGTCSVSYLPVLPGDYSILVKYNEQHVPGSPFTARVTGDDSMRMSHLKVGSAADIPINISETDLSLLTATVVPPSGREEPCLLKRLRNGHVGISFVPKETGEHLVHVKKNGQHVASSPIPVVISQSEIGDASRVRVSGQGLHEGHTFEPAEFIIDTRDAGYGGLSLSIEGPSKVDINTEDLEDGTCRVTYCPTEPGNYIINIKFADQHVPGSPFSVKVTGEGRVKESITRRRRAPSVANVGSHCDLSLKIPEISIQDMTAQVTSPSGKTHEAEIVEGENHTYCIRFVPAEMGTHTVSVKYKGQHVPGSPFQFTVGPLGEGGAHKVRAGGPGLERAEAGVPAEFSIWTREAGAGGLAIAVEGPSKAEISFEDRKDGSCGVAYVVQEPGDYEVSVKFNEEHIPDSPFVVPVASPSGDARRLTVSSLQESGLKVNQPASFAVSLNGAKGAIDAKVHSPSGALEECYVTEIDQDKYAVRFIPRENGVYLIDVKFNGTHIPGSPFKIRVGEPGHGGDPGLVSAYGAGLEGGVTGNPAEFVVNTSNAGAGALSVTIDGPSKVKMDCQECPEGYRVTYTPMAPGSYLISIKYGGPYHIGGSPFKAKVTGPRLVSNHSLHETSSVFVDSLTKATCAPQHGAPGPGPADASKVVAKGLGLSKAYVGQKSSFTVDCSKAGNNMLLVGVHGPRTPCEEILVKHVGSRLYSVSYLLKDKGEYTLVVKWGDEHIPGSPYRVVVP
B2: HSPC 118: human protein interacting with FnbB, NCBI Protein GI 6841458 (protein)
chain: MVGGGGVGGGLLENANPLIYQRSGERPVTAGEEDEQVPDSIDAREIFDLIRSINDPEHPLTLEELNVVEQVRVQVSDPESTVAVAFTPTIPHCSMATLIGLSIKVKLLRSLPQRFKMDVHITPGTHASEHAVNKQLADKERVAAALENTHLLEVVNQCLSARS

Test system: GST-tagged FnbB
Experiment: Pull-down with GST-tagged FnbB, proteins from rabbit reticulocyte translation system
Assay type: binding, S. aureus
Conditions: cell-free protein translation system; GST alone as negative control
Excerpt: Recombinant proteins were produced from the isolated plasmids from the PPI-partners in a rabbit reticulocyte-based translation system and additionally in E. coli cells. The produced recombinant proteins were used for pull-down and immunoprecipitation experiments.

| Molecule | Co-purified with GST-tagged FnbB |
| --- | --- |
| B1 | could be co-purified |
| B2 | could be co-purified |
